What all share (assay): EMSA
(In general: In EMSA bound probe runs differently from free probe, usually more slowly.)

The subject of data set [1] is Protamine 2 precursor (pro P2) (Mus musculus (C57BL/6N, P1 K49A/K49A knock-in)).
In data set [2] the test system is Protamine 2, mature (WT P2) (Mus musculus (C57BL/6N background)).
For data set [3], the system named is Protamine 1 (WT P1) (Mus musculus (C57BL/6N background)).
The test system of data set [4] is Protamine 1 K49A (Mus musculus (C57BL/6N, P1 K49A/K49A knock-in)).

Kd data for one substance are collected here from doi:10.1101/2021.09.16.460631.

Usually Kd stands for the constant that tells how readily two partners part at equilibrium.

With ~300 bp linear DNA (280 bp PCR product), the Kd stood at 840 nM in data set [1], 670 nM in data set [2], 680 nM in data set [3] and 950 nM in data set [4].
